Data: article PMC10397321, “Energetic robustness to large scale structural fluctuations in a photosynthetic supercomplex” (Nature Communications, 2023)

B1: iron-stressed induced protein A (IsiA) (natural protein)
chain: not shown
notes: IsiA, iron-stressed induced protein A, Synechocystis sp; PCC 6803; six trans-membrane helices; model rebuilt from subunit X of PDB 6NWA; Each IsiA protomer coordinates 17 chlorophylls and 4 carotenoids; 18 copies form the ring around the PSI trimer; also called IsiA protomer; IsiA monomer; source: endogenous, purified as PSI-IsiA supercomplex from Synechocystis sp; PCC 6803 grown with low iron …

How the values were obtained:
[1] = target: the molecule itself; test: cryo-EM structure; native PSI3-IsiA18 supercomplex co-purified from Synechocystis sp. PCC 6803 membranes in DDM; 30 mM Tricine-NaOH pH 8, 75 mM NaCl, 0.02% DDM; 1.5 mg chlorophyll/ml; vitrified on holey carbon grids; C3 symmetry expansion and multibody refinement
[2] = target: B1; test: as above; details: both partners purified

B1
stoichiometry N [1]: 18

B2: PsaJ subunit of photosystem I (natural protein, Synechocystis sp. PCC 6803, UniProt Q55329 1-40, looked up)
chain: MDGLKSFLSTAPVMIMALLTFTAGILIEFNRFYPDLLFHP
notes: PsaJ, PSI subunit, Synechocystis sp; PCC 6803; Stood in the assay as a subunit of PSI; also called PsaF/J; PsaJ/F; source: endogenous, purified as part of the PSI-IsiA supercomplex from Synechocystis sp; PCC 6803 (DDM-solubilised membranes, DEAE column, sucrose gradients)
binding result [2]: binds

B3: PsaF subunit of photosystem I (natural protein, Synechocystis sp. PCC 6803, UniProt P29256 24-165, looked up)
chain: DDFANLTPCSENPAYLAKSKNFLNTTNDPNSGKIRAERYASALCGPEGYPHLIVDGRFTHAGDFLIPSILFLYIAGWIGWVGRSYLIEIRESKNPEMQEVVINVPLAIKKMLGGFLWPLAAVGEYTSGKLVMKDSEIPTSPR
notes: PsaF, PSI subunit, Synechocystis sp; PCC 6803; Stood in the assay as a subunit of PSI; also called PsaF/J; PsaJ/F; source: endogenous, purified as part of the PSI-IsiA supercomplex from Synechocystis sp; PCC 6803 (DDM-solubilised membranes, DEAE column, sucrose gradients)
binding result [2]: binds
